The labels stand for the following.
B1: Activin A (ligand, UniProt P08476 311-426, looked up)
chain: GLECDGKVNICCKKQFFVSFKDIGWNDWIIAPSGYHANYCEGECPSHIAGTSGSSLSFHSTVINHYRMRGHSPFANLKSCCVPTKLRPMSMLYYDDGQNIIKKDIQNMIVEECGCS
B2: BMP-9 (ligand, UniProt Q9UK05 320-429, looked up)
chain: SAGAGSHCQKTSLRVNFEDIGWDSWIIAPKEYEAYECKGGCFFPLADDVTPTKHAIVQTLVHLKFPTKVGKACCVPTKLSPISVLYKDDMGVPTLKYHYEGMSVAECGCR
notes: also called bone morphogenetic protein 9
B12: Activin B (ligand, UniProt P09529 293-407, looked up)
chain: GLECDGRTNLCCRQQFFIDFRLIGWNDWIIAPTGYYGNYCEGSCPAYLAGVPGSASSFHTAVVNQYRMRGLNPGTVNSCCIPTKLSTMSMLYFDDEYNIVKRDVPNMIVEECGCA
B13: extracellular ActRIIa (SEQ ID NO: 73) fused to the N-terminus of hFc through a GGG linker (Fc fusion)
chain: AILGRSETQECLFFNANWEKDRTNQTGVEPCYGDKDKRRHCFATWKNISGSIEIVKQGCWLDDINCYDRTDCVEKKDSPEVYFCCCEGNMCNEKFSYFPEMEVTQPTSGGG
notes: also called ActRIIa (19-127); wild-type extracellular ActRIIa; not shown: human Fc (hFc)
B15: growth differentiation factor 11 (GDF11) (ligand, UniProt O95390 299-407, looked up)
chain: NLGLDCDEHSSESRCCRYPLTVDFEAFGWDWIIAPKRYKANYCSGQCEYMFMQKYPHTHLVQQANPRGSAGPCCTPTKMSPINMLYFNDKQQIIYGKIPGMVVDRCGCS

In assay [1] the target is T1, extracellular ActRIIb (SEQ ID NO: 74) fused to the N-terminus of hFc through a GGG linker (human, UniProt Q13705 20-134).
T1 construct: also called ActRIIb (41-155); wild-type extracellular ActRIIb; not shown: human Fc (hFc)
T1 sequence: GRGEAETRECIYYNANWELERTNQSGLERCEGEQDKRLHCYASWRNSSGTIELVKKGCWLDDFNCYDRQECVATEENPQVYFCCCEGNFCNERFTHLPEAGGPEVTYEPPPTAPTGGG
Kind of assay: SPR, Biacore 3000; receptor fusion captured on chip, ligand in solution.

The target of assay [2] is B13. The assay is described as above.
Assay [3] addresses B12. The assay is described as above.
The target in assay [4] is B2. Described as above.
The target of assay [5] is B1. The assay is described as above.
Assay [6] has as its target B15. The assay is described as above.
Assay [7] has as its target B12. Description: SPR, Biacore 3000; receptor fusion captured on the chip by antibody, ligand run in a concentration series.
The target in assay [8] is B1. Described as above.
Assay [9] has as its target B15. The assay is described as above.

By Kd is commonly meant the concentration at which binding is half-saturated. B1 returned a Kd in assay [1] of 63 pM.
Regarding B2, in assay [2], the Kd was 25000 pM.

B3: ActRIIa/bmax3 variant (SEQ ID NO: 72) fused to the N-terminus of hFc through a GGG linker (Fc fusion)
chain: GAILGRSETQECLFYNANWELERTNQTGVERCEGEKDKRLHCYATWRNISGSIEIVKKGCWLDDFNCYDRTDCVETEENPQVYFCCCEGNMCNEKFSYFPEMEVTQPTSNPVTPKGGG
notes: not shown: human Fc (hFc)
For B3, the dissociation constant (Kd) is 43 pM in [3], 3300 pM in assay [4], 89 pM in assay [5] and 214 pM in [6].

B4: extracellular ActRIIa/bΔ9 variant (SEQ ID NO: 58) fused to the N-terminus of hFc through a GGG linker (Fc fusion)
chain: GAILGRSETQECLFYNANWELDRTNQTGVERCEGEKDKRLHCYATWRNISGSIEIVKKGCWLDDFNCYDRTDCVETKENPQVYFCCCEGNMCNEKFSYFPEMEVTQPTSGGG
notes: also called ActRIIA/BΔ9-Fc; not shown: human Fc (hFc)
As to B4, the Kd was determined as 12.3 pM in [3], 10000 pM in assay [4], 213 pM in assay [5] and 115 pM in assay [6].

B5: ActRIIa/bmax1 (SEQ ID NO: 70) fused to the N-terminus of hFc through a GGG linker (Fc fusion)
chain: GAILGRSETQECLYYNANWELERTNQTGVERCEGEQDKRLHCYATWRNISGSIEIVKKGCWLDDFNCYDRTDCVETEENPQVYFCCCEGNMCNEKFSYFPEMEVTQPTSGGG
notes: also called ActRIIa/bmax1 variant; not shown: human Fc (hFc)
Regarding B5, the Kd in assay [3] stood at 97 pM; in assay [4], 5600 pM; in assay [5] it was 232 pM; in assay [6], 236 pM.

B6: ActRIIa/b+ (SEQ ID NO: 150) fused to the N-terminus of hFc through a GGG linker (Fc fusion)
chain: GAILGRSETQECLFYNANWELERTNQTGVERCEGEKDKRLHCYATWRNISGSIEIVAKGCWLDDFNCYDRTDCVETEENPQVYFCCCEGNMCNEKFSYFPEMEVTQPTSGGG
notes: also called ActRIIab+ variant; not shown: human Fc (hFc)
In the case of B6, the Kd in [3] is 282 pM; in assay [4], 26000 pM; in assay [5] it was 242 pM.

B7: extracellular ActRIIa/b variant (SEQ ID NO: 69) fused to the N-terminus of hFc through a GGG linker (Fc fusion)
chain: GAILGRSETQECLFYNANWELERTNQTGVERCEGEKDKRLHCYATWRNISGSIEIVKKGCWLDDFNCYDRTDCVETEENPQVYFCCCEGNMCNEKFSYFPEMEVTQPTSGGG
notes: also called ActRIIA/B-Fc; not shown: human Fc (hFc)
B7: the Kd in [3] is 103 pM; in [4], 4000 pM; in assay [5], 542 pM; in assay [6], 186 pM.

B8: ActRIIa/b-delta 9m3 (SEQ ID NO: 41) fused to the N-terminus of hFc through a GGG linker (Fc fusion)
chain: GAILGRSETQECLFYNANWELDRTNQTGVERCEGEKDKRLHCFATWRNISGSIEIVKKGCWLDDFNCYDRTDCVETKENPQVYFCCCEGNMCNEKFSYFPEMEVTQPTSGGG
notes: also called ActRIIa/bΔ9m3 variant; not shown: human Fc (hFc)
For the molecule B8, the Kd was determined as 72.5 pM in [3], 1200 pM in assay [4], 71 pM in assay [5] and 117 pM in [6].

B9: ActRIIa/b-delta 9m4 (SEQ ID NO: 44) fused to the N-terminus of hFc through a GGG linker (Fc fusion)
chain: GAILGRSETQECLFYNANWELDRTNQTGVEPCEGEKDKRLHCYATWRNISGSIEIVKKGCWLDDFNCYDRTDCVETKENPQVYFCCCEGNMCNEKFSYFPEMEVTQPTSGGG
notes: also called ActRIIa/bΔ9m4 variant; not shown: human Fc (hFc)
Turning to B9, the dissociation constant Kd in assay [3] was 254 pM; in assay [4], 14000 to 20000 pM; in [5], 375 pM; in assay [6], 394 pM.

B10: ActRIIa/b-delta 9m2 (SEQ ID NO: 38) fused to the N-terminus of hFc through a GGG linker (Fc fusion)
chain: GAILGRSETQECLFYNANWELDRTNQTGVERCEGEKDKRLHCYATWRNISGSIEIVKKGCWLDDINCYDRTDCVETKENPQVYFCCCEGNMCNEKFSYFPEMEVTQPTSGGG
notes: also called ActRIIa/bΔ9m2 variant; not shown: human Fc (hFc)
As to B10, the Kd in assay [3] was 104 pM; in assay [4] it was 13000 to 18000 pM; in assay [5] it was 170 pM; in assay [6], 222 pM.

B11: extracellular ActRIIa/bΔ9 min variant (SEQ ID NO: 6) fused to the N-terminus of hFc through a GGG linker (Fc fusion)
chain: GAILGRSETQECLFYNANWELDRTNQTGVEPCEGEKDKRLHCFATWKNISGSIEIVKKGCWLDDINCYDRTDCVETKENPQVYFCCCEGNMCNEKFSYFPEMEVTQPTSGGG
notes: not shown: human Fc (hFc)
B11: the Kd in [3] was found to be 88 pM; in [4], 17000 pM; in [5] it was 310 pM; in [6] it was 114 pM.
In turn, B12 gave a dissociation constant Kd in [1] of 23 pM.
Consider B13, for which the Kd in assay [3] came out at 373 pM; in [5], 1000 pM.

B14: ActRIIa/bmax2 (SEQ ID NO: 71) fused to the N-terminus of hFc through a GGG linker (Fc fusion)
chain: GAILGRSETQECLFYNANWELERTNQTGVERCEGEKDKRLHCYATWRNISGSIEIVKKGCWLDDFNCYDRTDCVETEENPQVYFCCCEGNMCNEKFSYFPEMEVTQPTSNPGGG
notes: also called ActRIIa/bmax2 variant; not shown: human Fc (hFc)
On to B14, for which the dissociation constant Kd in [3] was 39 pM; in assay [4], 5000 pM; in assay [5], 135 pM; in assay [6], 113 pM.
For B15, in assay [2], binding was put at a Kd of 81 pM.

B16: extracellular ActRIIb variant (SEQ ID NO: 149) fused to the N-terminus of hFc through a GGG linker (Fc fusion)
chain: GRGEAETRECIFYNANWEKDRTNQSGLEPCYGDQDKRRHCFASWKNSSGTIELVKQGCWLDDINCYDRQECVAKKDSPEVYFCCCEGNFCNERFTHLPEAGGPEVTYEPPPTAPTGGG
notes: also called ActRIIb/a variant; ActRIIb/a; not shown: human Fc (hFc)
As for B16, the binding result in assay [7], in assay [8] and in assay [9] was “no binding” in each case.

The record behind these values is US20190345225A1 (KEROS THERAPEUTICS, published 2019).
